Test [1] concerns the target H3K9me3S10ph peptide (Homo sapiens) (UniProt P68431). The settings on record: cited from earlier work.
Test [2] has as its target H3K9me3 peptide (Homo sapiens) (UniProt P68431). The following applies: cited from earlier work.
Test [3] has as its target T1, BRPF1 PWWP domain (aa 1064–1214) (UniProt P55201 1064-1214).
T1 sequence (looked up): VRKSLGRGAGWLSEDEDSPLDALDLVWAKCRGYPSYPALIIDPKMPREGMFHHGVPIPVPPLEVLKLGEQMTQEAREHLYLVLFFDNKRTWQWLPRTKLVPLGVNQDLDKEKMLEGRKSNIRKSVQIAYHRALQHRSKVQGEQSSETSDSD
The experiment in a line: NMR titration.

The target in test [4] is Tudor domain of human PHF1 (aa 14–87) (human, UniProt O43189 14-87). The experiment in a line: NMR titration.
Tudor domain of human PHF1 (aa 14–87), sequence (O43189 14-87): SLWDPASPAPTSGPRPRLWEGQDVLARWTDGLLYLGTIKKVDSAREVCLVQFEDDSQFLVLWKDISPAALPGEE

Square brackets hold non-standard residues; d marks the D form. Ends that are not written are not given here. pY = N[C@@H](Cc1ccc(OP(=O)(O)O)cc1)C(=O)O; Lys(Me3) = C[N+](C)(C)CCCC[C@H](N)C(=O)O; pS = N[C@@H](COP(=O)(O)O)C(=O)O

On to ATRX ADD (from UniProt P46100), for which the Kd in test [1] is 0.19 µM; in test [2] it was 0.11 µM.
Turning to KSAP[pS]TGGV[Lys(Me3)]KPHRYRPGT (peptide, UniProt P84243 28-46, looked up) [histone H3.3S31phK36me3 peptide (residues 27–45 of H3.3)], the dissociation constant Kd in test [3] came out at 2300 µM; in test [4], 260 µM.
On the same counts, the results for KSAPSTGGV[Lys(Me3)]KPHRYRPGT (peptide, UniProt P84243 28-46, looked up) [histone H3.3K36me3 peptide (residues 27–45 of H3.3)] are 3900 µM and 37 µM.
For KSAPSTGGV[Lys(Me3)]KPHR[pY]RPGT (peptide, UniProt P84243 28-46, looked up) [histone H3.3K36me3Y41ph peptide (residues 27–45 of H3.3)] the same measures were 1800 µM and 480 µM.
